Article PMC6927765
Like-named read-outs stand apart in the source and are kept apart here.

Assays:
Assay in all cases: SPR
[1] = target: CD3/CD20 mG2aH4 bispecific antibody (not stated | mouse)
[2] = target: CD3 mG2a (not stated | mouse)
[3] = target: CD3 mG1 D265A (not stated | mouse)
[4] = target: CD3/CD20 mG1KD D265A bispecific antibody (not stated | mouse)
[5] = target: CD3 mG2a D265A (not stated | mouse)
[6] = target: CD3/CD20 mG2aH4 bispecific antibody (not stated | mouse); remark: listed apart in the source
[7] = target: CD3 mG2a (not stated | mouse); remark: listed apart in the source

| Kd [2] | Kd [6] | Kd [7] | Molecule | also measured |
| --- | --- | --- | --- | --- |
| 1570 nM |  |  | Mouse Fc gamma receptor FCGR2 (from UniProt P08101 30-330) | Kd [1]: 1990 nM |
| 320 nM |  |  | Mouse FcRn (from UniProt Q61559 22-365; P01887 21-119) (receptor) | Kd [3]: 640 nM; Kd [4]: 670 nM; Kd [5]: 310 nM |
|  | 33 nM | 21 nM | Mouse Fc gamma receptor FCGR1 (receptor) EVVNATKAVITLQPPWVSIFQKENVTLWCEGPHLPGDSSTQWFINGTAVQISTPSYSIPEASFQDSGEYRCQIGSSMPSDPVQLQIHNDWLLLQASRRVLTEGEPLALRCHGWKNKLVYNVVFYRNGKSFQFSSDSEVAILKTNLSHSGIYHCSGTGRHRYTSAGVSITVKELFTTPVLRASVSSPFPEGSLVTLNCETNLLLQRPGLQLHFSFYVGSKILEYRNTSSEYHIARAEREDAGFYWCEVATEDSSVLKRSPELELQVLGPQSSAPVWFHILFYLSVGIMFSLNTVLYVKIHRLQREKKYNLEVPLVSEQGKKANSFQQVRSDGVYEEVTATASQTTPKEAPDGPRSSVGDCGPEQPEPLPPSDSTGAQTSQS |  |
|  | 39 nM | 18 nM | Mouse Fc gamma receptor FCGR4 (receptor) GLQKAVVNLDPKWVRVLEEDSVTLRCQGTFSPEDNSIKWFHNESLIPHQDANYVIQSARVKDSGMYRCQTALSTISDPVQLEVHMGWLLLQTTKWLFQEGDPIHLRCHSWQNRPVRKVTYLQNGKGKKYFHENSELLIPKATHNDSGSYFCRGLIGHNNKSSASFRISLGDPGSPSMFPPWHQITFCLLIGLLFAIDTVLYFSVRRGLQSPVADYEEPKIQWSKEPQDK |  |
|  | 1030 nM | 625 nM | Mouse Fc gamma receptor FCGR3 (receptor) ALPKAVVKLDPPWIQVLKEDMVTLMCEGTHNPGNSSTQWFHNGRSIRSQVQASYTFKATVNDSGEYRCQMEQTRLSDPVDLGVISDWLLLQTPQRVFLEGETITLRCHSWRNKLLNRISFFHNEKSVRYHHYKSNFSIPKANHSHSGDYYCKGSLGSTQHQSKPVTITVQDPATTSSISLVWYHTAFSLVMCLLFAVDTGLYFYVRRNLQTPREYWRKSLSIRKHQAPQDK |  |
